Laboratory results: publication PMC10188570, “Pathway and mechanism of tubulin folding mediated by TRiC/CCT along its ATPase cycle revealed using cryo-EM” (Communications Biology, 2023)

Assays:
Assay in all cases: cross-linking; XL-MS, 2 mM BS3 on ice 2 h, purified TRiC with associated tubulin after 1 mM ATP, 5 mM MgCl2, 5 mM Al(NO3)3, 30 mM NaF (ATP-AlFx) 1 h 37 °C
Conditions in all cases: both partners purified
[1] = target: T1, CCT3 (human, UniProt P49368 1-545)
T1 construct: CCT3 subunit of human TRiC/CCT, endogenous; stood in the assays as a subunit of the whole TRiC complex; also called TRiC subunit CCT3; source: endogenous, HEK293F cells, purified as a subunit of TRiC
T1 sequence (looked up): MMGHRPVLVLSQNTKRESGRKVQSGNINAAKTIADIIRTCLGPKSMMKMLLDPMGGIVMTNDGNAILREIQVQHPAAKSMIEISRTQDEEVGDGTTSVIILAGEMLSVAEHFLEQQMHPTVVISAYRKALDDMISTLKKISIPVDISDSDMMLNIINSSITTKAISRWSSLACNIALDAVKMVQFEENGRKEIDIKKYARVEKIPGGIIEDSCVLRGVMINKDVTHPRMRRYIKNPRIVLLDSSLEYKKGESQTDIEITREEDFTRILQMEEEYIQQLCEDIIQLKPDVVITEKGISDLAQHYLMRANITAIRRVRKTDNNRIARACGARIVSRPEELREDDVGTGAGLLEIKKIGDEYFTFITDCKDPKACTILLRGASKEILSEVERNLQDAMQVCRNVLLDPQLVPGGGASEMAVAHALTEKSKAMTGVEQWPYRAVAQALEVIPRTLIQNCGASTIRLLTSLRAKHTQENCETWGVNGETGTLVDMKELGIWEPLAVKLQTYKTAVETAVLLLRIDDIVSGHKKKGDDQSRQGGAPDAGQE

[2] = target: T2, CCT7 (human, UniProt Q99832 1-543)
T2 construct: CCT7 subunit of human TRiC/CCT, endogenous; stood in the assays as a subunit of the whole TRiC complex; also called TRiC subunit CCT7; source: endogenous, HEK293F cells, purified as a subunit of TRiC
T2 sequence (looked up): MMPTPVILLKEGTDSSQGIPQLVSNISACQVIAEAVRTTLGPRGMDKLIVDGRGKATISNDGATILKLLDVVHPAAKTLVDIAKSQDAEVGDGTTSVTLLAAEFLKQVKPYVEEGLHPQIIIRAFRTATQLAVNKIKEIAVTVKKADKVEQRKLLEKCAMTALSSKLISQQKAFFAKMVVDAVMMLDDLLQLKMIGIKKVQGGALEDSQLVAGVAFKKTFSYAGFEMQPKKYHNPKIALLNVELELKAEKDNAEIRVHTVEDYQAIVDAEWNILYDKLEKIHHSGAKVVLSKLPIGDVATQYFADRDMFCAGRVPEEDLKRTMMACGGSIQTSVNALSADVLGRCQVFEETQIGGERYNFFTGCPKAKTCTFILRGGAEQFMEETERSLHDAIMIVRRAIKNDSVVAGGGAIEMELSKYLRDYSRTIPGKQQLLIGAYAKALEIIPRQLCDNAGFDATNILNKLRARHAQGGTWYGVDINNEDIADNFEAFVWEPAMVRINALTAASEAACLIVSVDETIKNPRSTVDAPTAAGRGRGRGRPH

[3] = target: T3, CCT8 (human, UniProt P50990 1-548)
T3 construct: CCT8 subunit of human TRiC/CCT, endogenous; stood in the assays as a subunit of the whole TRiC complex; also called TRiC subunit CCT8; CCT8’ (copy in the trans ring); source: endogenous, HEK293F cells, purified as a subunit of TRiC
T3 sequence (looked up): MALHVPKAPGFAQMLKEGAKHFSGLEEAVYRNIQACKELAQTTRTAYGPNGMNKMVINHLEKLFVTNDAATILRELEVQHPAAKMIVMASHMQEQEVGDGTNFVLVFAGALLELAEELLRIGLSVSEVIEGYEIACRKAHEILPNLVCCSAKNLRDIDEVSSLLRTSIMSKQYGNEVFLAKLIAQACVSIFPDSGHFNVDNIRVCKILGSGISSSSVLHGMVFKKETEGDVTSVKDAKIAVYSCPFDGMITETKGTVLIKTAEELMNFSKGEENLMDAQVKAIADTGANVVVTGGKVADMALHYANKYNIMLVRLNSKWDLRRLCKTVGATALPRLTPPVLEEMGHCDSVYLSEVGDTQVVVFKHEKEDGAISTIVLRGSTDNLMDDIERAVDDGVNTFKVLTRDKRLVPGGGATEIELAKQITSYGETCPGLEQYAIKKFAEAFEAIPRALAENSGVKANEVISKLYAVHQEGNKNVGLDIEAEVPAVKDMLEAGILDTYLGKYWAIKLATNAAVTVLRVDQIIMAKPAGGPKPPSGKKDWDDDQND

[4] = target: T4, CCT5 (human, UniProt P48643 1-541)
T4 construct: CCT5 subunit of human TRiC/CCT, endogenous; stood in the assays as a subunit of the whole TRiC complex; also called TRiC subunit CCT5; source: endogenous, HEK293F cells, purified as a subunit of TRiC
T4 sequence (P48643 whole entry): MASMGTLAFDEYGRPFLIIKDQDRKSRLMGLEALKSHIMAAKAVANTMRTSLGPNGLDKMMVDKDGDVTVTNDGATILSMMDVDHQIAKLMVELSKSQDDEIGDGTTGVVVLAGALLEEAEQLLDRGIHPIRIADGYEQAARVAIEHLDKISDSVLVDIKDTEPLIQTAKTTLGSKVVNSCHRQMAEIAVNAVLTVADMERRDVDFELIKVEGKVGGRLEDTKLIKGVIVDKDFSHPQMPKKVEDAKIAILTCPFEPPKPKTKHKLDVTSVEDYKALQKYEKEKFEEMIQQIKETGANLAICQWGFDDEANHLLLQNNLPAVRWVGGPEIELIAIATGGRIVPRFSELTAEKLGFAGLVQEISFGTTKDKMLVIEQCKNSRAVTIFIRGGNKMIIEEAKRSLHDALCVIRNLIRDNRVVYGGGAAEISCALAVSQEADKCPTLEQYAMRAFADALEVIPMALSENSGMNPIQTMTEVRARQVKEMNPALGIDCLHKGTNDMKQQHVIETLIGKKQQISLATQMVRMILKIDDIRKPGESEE

[5] = target: T5, CCT4 (human, UniProt P50991 1-539)
T5 construct: CCT4 subunit of human TRiC/CCT, endogenous; stood in the assays as a subunit of the whole TRiC complex; also called TRiC subunit CCT4; source: endogenous, HEK293F cells, purified as a subunit of TRiC
T5 sequence (looked up): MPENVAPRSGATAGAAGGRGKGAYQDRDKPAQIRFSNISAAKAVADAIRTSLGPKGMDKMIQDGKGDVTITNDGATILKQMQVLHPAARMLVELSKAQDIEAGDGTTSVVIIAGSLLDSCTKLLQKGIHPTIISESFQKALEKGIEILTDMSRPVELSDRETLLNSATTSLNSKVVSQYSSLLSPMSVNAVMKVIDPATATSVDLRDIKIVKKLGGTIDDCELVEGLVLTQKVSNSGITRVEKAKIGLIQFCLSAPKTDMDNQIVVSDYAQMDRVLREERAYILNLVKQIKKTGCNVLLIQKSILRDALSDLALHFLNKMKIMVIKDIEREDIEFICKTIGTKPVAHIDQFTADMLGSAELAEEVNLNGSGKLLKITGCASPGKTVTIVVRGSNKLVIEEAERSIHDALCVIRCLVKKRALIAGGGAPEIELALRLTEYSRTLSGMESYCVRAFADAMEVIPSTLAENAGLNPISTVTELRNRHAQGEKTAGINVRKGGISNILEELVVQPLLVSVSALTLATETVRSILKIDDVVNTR

binding result [1]: binds
binding result [2]: binds
binding result [3]: binds
binding result [4]: binds
binding result [5]: binds
B1: β-tubulin (TUBB5) (natural protein, human (endogenous in HEK293F), UniProt P07437 1-444, looked up)
chain: MREIVHIQAGQCGNQIGAKFWEVISDEHGIDPTGTYHGDSDLQLDRISVYYNEATGGKYVPRAILVDLEPGTMDSVRSGPFGQIFRPDNFVFGQSGAGNNWAKGHYTEGAELVDSVLDVVRKEAESCDCLQGFQLTHSLGGGTGSGMGTLLISKIREEYPDRIMNTFSVVPSPKVSDTVVEPYNATLSVHQLVENTDETYCIDNEALYDICFRTLKLTTPTYGDLNHLVSATMSGVTTCLRFPGQLNADLRKLAVNMVPFPRLHFFMPGFAPLTSRGSQQYRALTVPELTQQVFDAKNMMAACDPRHGRYLTVAAVFRGRMSMKEVDEQMLNVQNKNSSYFVEWIPNNVKTAVCDIPPRGLKMAVTFIGNSTAIQELFKRISEQFTAMFRRKAFLHWYTGEGMDEMEFTEAESNMNDLVSEYQQYQDATAEEEEDFGEEAEEEA
notes: β-tubulin (TUBB5), human, endogenous; identified by MS and western blot; folding intermediate to near-natively folded, depending on the state of TRiC; also called substrate; source: endogenous, HEK293F cells, co-purified with TRiC
